Molecular target: T1, recombinant CADM1-EC-Fc protein consisting of the extracellular fragment domain of CADM1 fused to the Fc region of mouse IgG (UniProt Q9BY67)
T1 sequence: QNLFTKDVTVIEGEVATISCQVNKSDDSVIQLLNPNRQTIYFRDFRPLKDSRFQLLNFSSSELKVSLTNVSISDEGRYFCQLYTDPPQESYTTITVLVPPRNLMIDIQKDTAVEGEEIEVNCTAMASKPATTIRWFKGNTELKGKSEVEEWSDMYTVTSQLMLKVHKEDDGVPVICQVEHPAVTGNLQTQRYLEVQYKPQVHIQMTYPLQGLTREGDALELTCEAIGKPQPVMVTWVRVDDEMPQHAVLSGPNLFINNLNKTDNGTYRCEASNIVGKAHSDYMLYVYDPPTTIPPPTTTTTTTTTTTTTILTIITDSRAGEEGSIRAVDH

cell spreading assay: average surface area of MDCK+CADM1-GFP cells on CADM1-EC-Fc-coated glass against the same cells on control IgG: 1.8 fold
B1: CADM1-GFP on MDCK cells (MDCK+CADM1-GFP) (natural protein)
chain: QNLFTKDVTVIEGEVATISCQVNKSDDSVIQLLNPNRQTIYFRDFRPLKDSRFQLLNFSSSELKVSLTNVSISDEGRYFCQLYTDPPQESYTTITVLVPPRNLMIDIQKDTAVEGEEIEVNCTAMASKPATTIRWFKGNTELKGKSEVEEWSDMYTVTSQLMLKVHKEDDGVPVICQVEHPAVTGNLQTQRYLEVQYKPQVHIQMTYPLQGLTREGDALELTCEAIGKPQPVMVTWVRVDDEMPQHAVLSGPNLFINNLNKTDNGTYRCEASNIVGKAHSDYMLYVYDPPTTIPPPTTTTTTTTTTTTTILTIITDSRAGEEGSIRAVDHAVIGGVVAVVVFAMLCLLIILGRYFARHKGTYFTHEAKGADDAADADTAIINAEGGQNNSEEKKEYFI

— PMC3913574
